From patent publication US20070003517A1 (UNIVERSITY OF MASSACHUSETTS, published 2007)

What was measured:
[1] = system: T1, JIP-1 (as added to the in vitro protein kinase assay)
T1 sequence: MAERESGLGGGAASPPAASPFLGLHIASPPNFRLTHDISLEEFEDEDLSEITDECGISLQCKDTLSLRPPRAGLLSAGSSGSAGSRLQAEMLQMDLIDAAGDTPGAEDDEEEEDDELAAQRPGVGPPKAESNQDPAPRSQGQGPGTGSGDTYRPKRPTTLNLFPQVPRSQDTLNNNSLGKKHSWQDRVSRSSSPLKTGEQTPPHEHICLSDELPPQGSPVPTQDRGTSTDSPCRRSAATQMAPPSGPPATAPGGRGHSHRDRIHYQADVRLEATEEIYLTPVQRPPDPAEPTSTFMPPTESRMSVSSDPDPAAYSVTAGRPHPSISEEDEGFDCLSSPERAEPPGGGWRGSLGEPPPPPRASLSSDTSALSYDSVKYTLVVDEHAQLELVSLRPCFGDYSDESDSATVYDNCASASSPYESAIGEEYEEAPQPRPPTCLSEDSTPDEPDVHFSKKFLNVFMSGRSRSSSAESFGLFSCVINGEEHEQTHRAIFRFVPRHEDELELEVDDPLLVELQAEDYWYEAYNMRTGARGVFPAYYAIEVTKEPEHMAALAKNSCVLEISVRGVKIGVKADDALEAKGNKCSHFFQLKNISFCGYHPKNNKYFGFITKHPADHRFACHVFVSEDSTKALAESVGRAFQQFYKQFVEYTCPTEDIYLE

[2] = molecular target: T2, Flag epitope-tagged JNK1 (cell lysate) (human, UniProt P45983-2 1-384, limits assumed); experiment: GST pull-down from cell lysate, anti-Flag (M2) immunoblot
T2 construct: written N-terminal here
T2 sequence (P45983 other isoform, or with tags, fused parts or gaps limits assumed): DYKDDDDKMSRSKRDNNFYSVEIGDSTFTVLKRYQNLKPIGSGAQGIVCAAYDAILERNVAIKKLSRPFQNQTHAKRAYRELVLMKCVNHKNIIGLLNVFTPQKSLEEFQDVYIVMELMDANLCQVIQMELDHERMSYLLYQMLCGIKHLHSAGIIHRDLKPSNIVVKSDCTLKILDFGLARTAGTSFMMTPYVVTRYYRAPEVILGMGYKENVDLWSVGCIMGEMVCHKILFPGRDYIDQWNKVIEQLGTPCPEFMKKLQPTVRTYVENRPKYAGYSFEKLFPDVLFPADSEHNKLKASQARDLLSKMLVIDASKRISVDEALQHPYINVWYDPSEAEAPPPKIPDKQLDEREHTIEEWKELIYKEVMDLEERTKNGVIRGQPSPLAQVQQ
Procedure: To test whether JIP-1 binding to JNK is also isoform-dependent, a binding assay was utilized. Cell lysates (1 ml in TLB) containing JNK1, JNK2, or p38 MAP kinase, each tagged with the Flag epitope, were incubated with 5 μg GST-fusion proteins pre-bound to 10 μl glutathione-Sepharose. […] The GST-ATF2 fusion protein contains residues 1-109 of ATF2, and the GST-Jun fusion protein contains residues 1-79 of c-Jun. After incubation for one hour at 4° C. and three washes with TLB, bound proteins were detected by protein immunoblot analysis with the M2 monoclonal antibody, which is specific for the Flag epitope. Dérijard, et al., supra; Sluss et al., supra; Gupta et al., supra. When ATF2 or c-jun GST fusion proteins were used in this assay, binding to JNK1 was greater than binding to JNK2. This finding is consistent with the results of previous studies. […] The level of binding of these fusion proteins to JNK1 was similar to the level of binding to JNK2.

**Q.** For ERK2 (immune complex from CHO cells), which “phosphorylation of substrate (myelin basic protein) by ERK, immune complex kinase assay” value [1] is on record?
**A.** JIP-1 caused no significant change in the phosphorylation of substrates by the related MAP kinases p38 and ERK2

**Q.** Which “phosphorylation of c-Jun (GST-Jun) by JNK, immune complex kinase assay” value [1] does the source give for JNK (immune complex from CHO cells) here?
**A.** JIP-1 markedly inhibited the phosphorylation of c-Jun by JNK

**Q.** p38 (immune complex from CHO cells) was tested. Which “phosphorylation of substrate (GST-ATF2) by p38, immune complex kinase assay” value [1] did it give?
**A.** JIP-1 caused no significant change in the phosphorylation of substrates by the related MAP kinases p38 and ERK2

B1: GST-JIP-1 fusion protein containing residues 164-240 of JIP-1 (other)
chain: PQVPRSQDTLNNNSLGKKHSWQDRVSRSSSPLKTGEQTPPHEHICLSDELPPQGSPVPTQDRGTSTDSPCRRSAATQ
notes: not shown: glutathione-S-transferase (GST) of vector pGEX-3X
**Q.** Does B1 bind [2]?
**A.** no binding

B2: GST-JIP-1 fusion protein containing residues 203-281 of JIP-1 (other)
chain: PHEHICLSDELPPQGSPVPTQDRGTSTDSPCRRSAATQMAPPSGPPATAPGGRGHSHRDRIHYQADVRLEATEEIYLTP
notes: as for B1
**Q.** Does B2 bind [2]?
**A.** no binding
